Substitutions are numbered along the chain they refer to.
Key:
Experiment in all cases: BLI (Octet), biotinylated mAb on streptavidin sensors, culture supernatant
[1] = target: T1, RSV181177, non-stabilized RSV F B consensus soluble polypeptide with foldon and C-tag (respiratory syncytial virus, subgroup B …, UniProt O36634 26-109; O36634 137-540)
T1 construct: Measured in crude culture supernatant, no furin co-transfection; processing may be incomplete; End 551 is the end of the entry as counted; also called non-stabilized RSV F type B; non-stabilized F
T1 chain 1: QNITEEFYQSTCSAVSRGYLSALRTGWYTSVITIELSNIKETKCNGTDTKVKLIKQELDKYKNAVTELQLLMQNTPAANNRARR
T1 chain 2: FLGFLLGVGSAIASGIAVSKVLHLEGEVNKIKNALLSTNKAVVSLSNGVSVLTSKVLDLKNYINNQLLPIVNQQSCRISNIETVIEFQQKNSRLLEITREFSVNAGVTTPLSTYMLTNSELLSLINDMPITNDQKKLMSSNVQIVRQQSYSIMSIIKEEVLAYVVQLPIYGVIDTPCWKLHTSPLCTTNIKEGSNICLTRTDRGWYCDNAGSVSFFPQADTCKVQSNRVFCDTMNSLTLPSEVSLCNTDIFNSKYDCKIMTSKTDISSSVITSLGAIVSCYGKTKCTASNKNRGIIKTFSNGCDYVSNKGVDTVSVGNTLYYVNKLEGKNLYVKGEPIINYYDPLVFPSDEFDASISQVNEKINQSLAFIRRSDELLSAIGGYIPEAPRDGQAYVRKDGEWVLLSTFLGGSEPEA
Method: (§1) Quantitative Octet (BioLayer Interferometry) was used for measuring protein concentration in the supernatants at day of harvest and after 7 or 30 days storage at 4° C. CR9501 (an antibody specifically recognizing pre-fusion RSV F protein, which comprises the variable regions of the antibodies 58C5 as described in WO2012/006596) and CR9506 (recognizing pre-fusion and post-fusion RSV F protein and comprising a heavy chain variable region comprising SEQ ID NO: 21, and a light chain variable region comprising SEQ ID NO: 22) were biotinylated by standard protocols and immobilized on Streptavidin biosensors (ForteBio, Portsmouth, UK).
(§2) Afterwards, the coated biosensors were blocked in mock cell culture supernatant. A quantitative experiment was performed as follows: temperature 30° C., shaking speed 1000 rpm, time of the assay 300 sec. The concentration of the protein was calculated using a standard curve. The standard curve was prepared for each coated antibody CR9501 and CR9506 using the pre-fusion RSV FA protein (SEQ ID NO: 19; described previously in WO17174568) diluted in mock medium. […] The data analysis was done using the ForteBio Data Analysis 10.0.1.6 software (ForteBio).

[2] = target: T2, RSV181180 (I152M + K226M + D486N + S215P + P101Q) (respiratory syncytial virus, subgroup B …, UniProt O36634 26-109; P13843 137-540)
T2 chain 1: T1 chain 1 with P76Q
T2 chain 2: T1 chain 2 with I16M, S79P, K90M, D350N
Method: as §1, §2

[3] = target: T3, RSV181182 (I152M + K226M + D486N + S215P + P101Q + D489Y + T357R + N371Y) (respiratory syncytial virus, subgroup B …, UniProt O36634 26-109; P13843 137-540)
T3 chain 1: T1 chain 1 with P76Q
T3 chain 2: T1 chain 2 with I16M, S79P, K90M, T221R, N235Y, D350N, D353Y
Method: as §1, §2

[4] = target: T4, RSV190417 (tag-free; I152M + K226M + D486N + S215P + L203I + P101Q + D489Y) (respiratory syncytial virus, subgroup B …, UniProt O36634 26-109; P13843 137-540)
T4 construct: Measured in culture supernatant, furin co-transfected
T4 chain 1: T1 chain 1 with P76Q
T4 chain 2: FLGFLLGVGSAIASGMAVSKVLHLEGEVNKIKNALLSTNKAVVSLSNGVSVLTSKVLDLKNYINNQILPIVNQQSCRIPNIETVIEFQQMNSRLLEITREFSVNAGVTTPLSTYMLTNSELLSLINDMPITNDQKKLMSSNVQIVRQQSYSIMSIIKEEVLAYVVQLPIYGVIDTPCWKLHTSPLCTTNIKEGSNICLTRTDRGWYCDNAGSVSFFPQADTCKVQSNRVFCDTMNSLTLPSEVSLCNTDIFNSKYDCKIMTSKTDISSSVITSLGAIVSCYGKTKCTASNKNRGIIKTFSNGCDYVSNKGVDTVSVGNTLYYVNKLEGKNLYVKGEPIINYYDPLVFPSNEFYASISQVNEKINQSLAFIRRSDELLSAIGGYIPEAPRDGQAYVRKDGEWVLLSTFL
Method: as §1, §2

Measured: binding result

B1: CR9506 (antibody, human IgG1, kappa, V domains shown)
VH: EVQLVQSGAEVKKPGSSVKVSCKASGGTFSRSLITWVRQAPGQGLEWMGEISLVFGSAKNAQKFQGRVTITADESTSTAHMEMISLKHEDTAVYYCAAHQYGSGTHNNFWDESELRFDLWGQGTLVTVSS
VL: DIVMTQSPSSLSASVGDRVTIACRASQSIGTYLNWYQQKPGKAPKLLIYAASSLQSGVPSRFSGSGSGTHFTLAISSLQAEDFATYSCQQSYTIPYTFGQGTKLEIKR
notes: Biotinylated for Octet; coated and also used HRP-labelled as detection antibody in the ELISA
binds: all assays above

— US20240132548A1 (Janssen / Centocor, published 2024)
